Test results: paper PMC3149346
One block for each substance: values may come before it.

Experiments:
Assay in all cases: AUC
[1] = molecular target: Nek2 leucine zipper construct LZ0 (residues 290-360) (UniProt P51955)
[2] = molecular target: LZ5 K309C/C335A mutant of the Nek2 leucine zipper (UniProt P51955)
[3] = molecular target: Nek2 core leucine zipper construct LZ5 (residues 299-343) (UniProt P51955)

stoichiometry N [1]: 2
Substance: Nek2 leucine zipper construct LZ0 (residues 290-360) (from UniProt P51955 290-360) (domain or fragment)

stoichiometry N [2]: 2
Substance: LZ5 K309C/C335A mutant of the Nek2 leucine zipper (from UniProt P51955 299-343) (domain or fragment)

stoichiometry N [3]: 2
Substance: Nek2 core leucine zipper construct LZ5 (residues 299-343) (from UniProt P51955 299-343) (domain or fragment)
